Measured values from patent US20100298542A1.

Columns and labels:
[1] = biological target: soluble human FcRn (complex of FcRn extracellular domain and β2-microglobulin) (human) (UniProt P55899); assay: SPR (Biacore 3000), antibody captured on Protein L or anti-human kappa antibody, human FcRn as analyte, pH 6.0, steady state affinity
[2] = biological target: recombinant soluble human IL-6 receptor (SR344) (human) (UniProt P08887); assay: SPR (Biacore T100), antibody captured on anti-IgG (γ-chain specific) F(ab')2, SR344 as analyte, pH 7.4, 37° C.
Chain of recombinant soluble human IL-6 receptor (SR344) (human) (P08887 20-344): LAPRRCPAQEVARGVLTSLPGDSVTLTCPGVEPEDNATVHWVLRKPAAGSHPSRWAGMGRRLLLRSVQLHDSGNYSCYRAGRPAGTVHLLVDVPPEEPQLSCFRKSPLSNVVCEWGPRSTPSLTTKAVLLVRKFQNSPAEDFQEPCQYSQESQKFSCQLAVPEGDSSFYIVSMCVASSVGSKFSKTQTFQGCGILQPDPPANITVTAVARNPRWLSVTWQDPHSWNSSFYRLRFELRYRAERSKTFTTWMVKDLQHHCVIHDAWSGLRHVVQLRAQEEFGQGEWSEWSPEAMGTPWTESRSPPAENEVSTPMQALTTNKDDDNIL

[3] = biological target: soluble human FcRn (complex of FcRn extracellular domain and β2-microglobulin) (human) (UniProt P55899); assay: SPR (Biacore 3000), antibody captured on Protein L or anti-human kappa antibody, human FcRn as analyte, pH 6.0, steady state affinity; remark: listed apart in the source
[4] = biological target: soluble human FcRn (complex of FcRn extracellular domain and β2-microglobulin) (human) (UniProt P55899); assay: SPR (Biacore 3000), method of Example 6: captured antibody, human FcRn as analyte, pH 6.0, steady state affinity

Chain of soluble human FcRn (complex of FcRn extracellular domain and β2-microglobulin) (human) (P55899 24-290 limits assumed, chain 1 of 2): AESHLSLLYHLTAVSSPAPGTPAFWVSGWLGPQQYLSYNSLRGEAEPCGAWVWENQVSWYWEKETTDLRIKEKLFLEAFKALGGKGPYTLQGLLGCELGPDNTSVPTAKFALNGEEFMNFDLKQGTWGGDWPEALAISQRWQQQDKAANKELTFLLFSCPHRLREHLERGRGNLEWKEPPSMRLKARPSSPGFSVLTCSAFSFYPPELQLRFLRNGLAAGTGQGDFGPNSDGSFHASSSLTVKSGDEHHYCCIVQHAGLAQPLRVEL
Chain of soluble human FcRn (complex of FcRn extracellular domain and β2-microglobulin) (human) (b2m, as listed by the source limits assumed, chain 2 of 2): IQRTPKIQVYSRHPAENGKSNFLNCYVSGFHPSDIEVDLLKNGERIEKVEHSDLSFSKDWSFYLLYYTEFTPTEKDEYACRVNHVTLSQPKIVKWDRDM

WT-IgG1 (humanized PM-1 antibody, TOCILIZUMAB; humanized anti-human IL-6 receptor IgG1 antibody)
Kd [1]: 1620 nM
Kd [2]: 2.7 nM
koff [2]: 0.0011 s⁻¹
kon [2]: 400000 M⁻¹ s⁻¹
Kd [3]: 2070 nM
Kd [4]: 1420 nM
